Laboratory results: patent publication US20050009137A1 (CEDARS SINAI MEDICAL CENTER, published 2005)

Key:
recombinant human ERα = target: T1, recombinant human ERα (human, UniProt P03372 1-595); experiment: EMSA with consensus ERE probe, recombinant human ERα and extract of IEBP transfectant; supershift with anti-hsp27 antibody
T1 construct: also called estrogen receptor alpha
T1 sequence (looked up): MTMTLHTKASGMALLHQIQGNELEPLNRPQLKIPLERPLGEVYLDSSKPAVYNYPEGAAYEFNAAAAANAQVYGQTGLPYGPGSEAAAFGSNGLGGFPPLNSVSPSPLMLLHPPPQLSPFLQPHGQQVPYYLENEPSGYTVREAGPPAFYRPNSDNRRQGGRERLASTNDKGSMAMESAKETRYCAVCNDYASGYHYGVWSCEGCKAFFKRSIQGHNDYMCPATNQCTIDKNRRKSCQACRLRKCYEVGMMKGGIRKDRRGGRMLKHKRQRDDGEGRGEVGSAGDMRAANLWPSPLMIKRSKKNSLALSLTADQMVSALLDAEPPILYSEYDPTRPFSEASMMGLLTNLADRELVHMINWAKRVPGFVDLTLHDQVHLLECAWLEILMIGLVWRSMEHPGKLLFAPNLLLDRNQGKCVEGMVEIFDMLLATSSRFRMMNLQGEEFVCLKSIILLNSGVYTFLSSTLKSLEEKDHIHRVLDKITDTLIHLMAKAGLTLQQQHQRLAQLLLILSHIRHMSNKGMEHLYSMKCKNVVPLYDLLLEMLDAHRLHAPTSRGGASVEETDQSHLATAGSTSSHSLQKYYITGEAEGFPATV

GST protein alone = target: T2, GST protein alone (UniProt P08515 1-218 = GST); experiment: GST pull-down from protein extracts of cells overexpressing IEBP, SDS-PAGE and blot with anti-hsp27 antibody
T2 construct: Control in the GST pull-down; also called GST alone
T2 sequence (P08515 whole entry): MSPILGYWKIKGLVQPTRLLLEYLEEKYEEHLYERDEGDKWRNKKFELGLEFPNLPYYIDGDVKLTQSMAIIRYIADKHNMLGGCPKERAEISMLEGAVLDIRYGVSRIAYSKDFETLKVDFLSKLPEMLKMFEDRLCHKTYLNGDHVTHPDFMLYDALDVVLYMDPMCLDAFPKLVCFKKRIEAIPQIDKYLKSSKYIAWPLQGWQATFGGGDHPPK
Protocol: Postnuclear extracts were applied to the GST beads and incubated for 1 hour. The loaded GST-extract mixture was then washed repetitively (5×) with PBS buffer containing 5 mM DTT and 1 mM PMSF and resuspended in 2×SDS sample buffer and boiled for 5 minutes. Denatured proteins were resolved on 4-20% SDS-PAGE gel, transferred to a nitrocellulose membrane, probed with appropriate antibody (obtained from Santa Cruz) and visualized by ECL.
Protein extracts of cells overexpressing IEBP were incubated with a GST-receptor ligand-binding domain fusion protein representing the ER. Control assays were employed using a glucocorticoid receptor (GR)-fusion protein or GST protein alone.

B1: intracellular estradiol binding protein (IEBP) of New World primate B95-8 cells (other)
chain: MTERHVPFSLLQSPSWDPFRDWYPHSHLFDQAFGMPRLPEEWSQWFGTSSWPGYVRPLPPTTVEGPAVAAPAYSRALNQQLSSGVSETADRWRVSLDVNHFAPEELTVKTKDGVVEITGKHEERQDEHGFISRCFTRKYSLPPGVDPTQVSPSLSPEGTLTVDAPMSKPATQSNEITIPVTFESRAQLGGPEAAKSDRSAAK
notes: also called hsp27-like IEBP; hsp 27-related IEBP
binding result (recombinant human ERα): binds | binding result (GST protein alone): no binding
